As a reminder, the EC50 is the midpoint of the concentration-response curve.

For assay [1], the target named is recombinant SARS-CoV Spike protein (RBD, His tag) (SARS-CoV, UniProt P59594 306-527). Description: iQue flow cytometry, antigen-coated beads. Background: A flow cytometer gives signals particle by particle.
Assay [2] addresses T1, MERS-CoV Spike protein fragment (RBD, aa 367-606, His tag) (MERS-CoV, UniProt K9N5Q8 367-606).
T1 sequence: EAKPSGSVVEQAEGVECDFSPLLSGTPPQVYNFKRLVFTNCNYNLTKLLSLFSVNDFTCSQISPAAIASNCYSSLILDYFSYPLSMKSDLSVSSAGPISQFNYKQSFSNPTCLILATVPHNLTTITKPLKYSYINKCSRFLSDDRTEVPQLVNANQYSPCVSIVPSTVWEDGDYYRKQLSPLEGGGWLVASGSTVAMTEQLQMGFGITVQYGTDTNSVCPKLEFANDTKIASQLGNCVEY
Description: iQue flow cytometry, antigen-coated beads.

The target in assay [3] is T2, SARS-CoV-2-S1 (RBD)-His protein (Trenzyme) (SARS-CoV-2, UniProt P0DTC2 319-541). The assay can be described thus: iQue flow cytometry, antigen-coated beads.
Assay [4] has as its target T2, SARS-CoV-2-S1 (RBD)-His protein …. The assay can be described thus: direct ELISA on coated RBD-His.
Assay [5] addresses T3, BSA (Sigma-Aldrich) (bovine, UniProt P02769 25-607).
T3 construct: also called bovine serum albumin; BSA control
Description: direct ELISA on coated BSA. Background: An ELISA detects its analyte on a solid surface through an enzyme-linked reagent.

T3 sequence (P02769 25-607 limits assumed): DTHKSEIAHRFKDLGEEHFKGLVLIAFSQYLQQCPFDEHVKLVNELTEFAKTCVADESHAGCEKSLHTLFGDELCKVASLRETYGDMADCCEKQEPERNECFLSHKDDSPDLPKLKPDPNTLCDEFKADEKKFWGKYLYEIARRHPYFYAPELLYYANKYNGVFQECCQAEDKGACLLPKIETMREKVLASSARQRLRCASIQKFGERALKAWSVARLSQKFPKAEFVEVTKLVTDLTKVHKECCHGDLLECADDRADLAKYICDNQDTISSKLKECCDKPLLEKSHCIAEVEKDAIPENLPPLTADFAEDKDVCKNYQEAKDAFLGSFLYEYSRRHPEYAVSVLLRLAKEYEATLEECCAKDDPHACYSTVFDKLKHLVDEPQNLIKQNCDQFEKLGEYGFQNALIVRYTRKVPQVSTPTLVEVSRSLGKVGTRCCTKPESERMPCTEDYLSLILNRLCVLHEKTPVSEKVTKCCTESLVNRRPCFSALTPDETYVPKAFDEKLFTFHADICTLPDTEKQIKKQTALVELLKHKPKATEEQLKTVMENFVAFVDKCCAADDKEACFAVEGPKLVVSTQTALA

B1: NI-607.532_D4 (antibody, V domains shown)
VH: QVQLVQSGAEVKRPGASVKVSCKASGYHFTDYYIHWVRQAPGQGLEWMGWINPNSGGTNYAQKFQGRVTMTRDTSISTAYMELSRLRSDDTAVYYCARVYYYDSSSFADYWGQGTLVTVSS
VL: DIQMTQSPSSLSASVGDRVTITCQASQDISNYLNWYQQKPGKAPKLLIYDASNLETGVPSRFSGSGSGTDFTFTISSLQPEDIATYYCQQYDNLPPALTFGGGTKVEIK
notes: also called NI-607.532_D4C5
Turning to B1, the EC50 is 1000 nM in assay [1], 1000 nM in assay [2], 1 nM in assay [3] and 0.0055 nM in assay [4].

B2: NI-607.820_B7 (antibody, V domains shown)
VH: EVQLVESGGGLVQPGRSLRLSCAASGFTFDDFDMHWVRQAPGKGLEWVSGVTWNSGIIGYADSVKGRFTISRDNAKNSLYLQMNSLRAEDTALYYCAKEFYPRYGSGIRSHYFGMDVWGQGTTVTVSS
VL: QSVLTQSPSASGTPGQRVTISCSGSSSNVGSNAVNWYQQLPGTAPKLLIYSNNRRPSGVPNRFSGSKSGTSASLAISGLQSDDEADYYCAAWDDSLDGPTFGGGTKLTVL
Take B2: the EC50 turned out to be 800 nM in assay [1], 800 nM in assay [2], 9 nM in assay [3] and 0.082 nM in assay [4]. The binding result in assay [5] was “no binding (tested: 400 nM)”.

B3: NI-607.532_D8 (antibody, V domains shown)
VH: EVQLVESGGGVVQPGRSLRLSCAASGFTFSSYGMHWVRQAPGKGLEWVAVISYDGSNKYYADSVKGRFTISRDNSKNTLYLQMNSLRAEDTAVYYCAKQGGGQYCSGGSCYSGYFDYWGQGTLVTVSS
VL: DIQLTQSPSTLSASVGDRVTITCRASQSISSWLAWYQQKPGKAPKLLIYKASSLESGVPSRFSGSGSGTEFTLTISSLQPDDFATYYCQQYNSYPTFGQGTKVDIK
Consider B3, for which the EC50 was found to be 32 nM in assay [1], 1000 nM in assay [2], 14.4 nM in assay [3] and 0.0051 nM in assay [4].

B4: NI-607.791_B10 (antibody, V domains shown)
VH: QVQLQQWGAGLLKPSETLSRTCAVYGGSFSDYYWSWIRQPPGKGLEWIGEVNHRGVTNYNPSLKSRVTISIDTSKSQFSLELRSVTDADTALYFCARSPFWTIAARPFDYWGRGTLVTVSS
VL: EIVMTQSPGTLSLSPGERATLSCRASQSVISNYLAWYQQKPGQAPRFLIYAASTRARGIPDRFSGSGSGTDFTLTISRLEAEDFAVYYCQQYGNSPLTFGGGTKLEIK
B4: the EC50 is 400 nM in assay [1], 400 nM in assay [2], 13.7 nM in assay [3] and 0.062 nM in assay [4]. The binding result in assay [5] is reported as “no binding (tested: 400 nM)”.

B5: NI-607.532_C8 (antibody, V domains shown)
VH: QVQLVESGGGLVKPGRSLRLSCTASGFTFGDYAMSWFRQAPGKGLEWVGFIRSKAYGGTTEYAASVKGRFSISRDDSKSIAYLQMNSLKTEDTAVYYCTRGWIVVVIEDAFDIWGQGTMVTVSS
VL: not shown
With B5, the EC50 in assay [1] and in assay [2] was 400 nM in each case. For the same molecule, the binding result in assay [5] is given as “no binding (tested: 400 nM)”.

B6: NI-607.820_B6 (antibody, V domains shown)
VH: EVQLQESGPGLVKPSETLSLTCTVSGGSVSSGSYYWSWIRQPPGKGLEWIGYIYYSGSTNYNPSLKSRVTISVDTSKNQFSLKVSSVTAADTAVYYCARDSIVVVPAARPLYYGMDVWGQGTTVTVSS
VL: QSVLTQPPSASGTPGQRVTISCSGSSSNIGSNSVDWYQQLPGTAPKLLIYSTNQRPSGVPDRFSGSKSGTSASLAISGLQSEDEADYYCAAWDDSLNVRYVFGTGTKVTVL
For B6, the EC50 turned out to be 60.2 nM in assay [1], 1000 nM in assay [2], 2.4 nM in assay [3] and 0.029 nM in assay [4]. In addition, the binding result in assay [5] is “no binding (tested: 400 nM)”.

B7: NI-607.531_E3 (antibody, V domains shown)
VH: EVQLVESGGGVVQPGRSLRLSCAASGFTFSSYGMHWVRQAPGKGLEWVAVISYDGSNKYYADSVKGRFTISRDNSKNTLYLQMNSLRAEDTAVYYCAKQISGYNYPYYFDYWGQGTLVTVSS
VL: not shown
As for B7, the EC50 in assay [1] was 2.6 nM; in assay [2], 1000 nM; in assay [3], 1.4 nM; in assay [4], 0.02 nM. Besides, the binding result in assay [5] is listed as “no binding (tested: 400 nM)”.

Source of the values: patent publication US20230242624A1 (NEURIMMUNE, published 2023).
